From paper PMC4742278, “BS69/ZMYND11 C-Terminal Domains Bind and Inhibit EBNA2” (PLoS Pathogens, 2016)

Key:
[1] = molecular target: EBNA2 fragment residues 381–445 (EBNA2_(381–445)) (Epstein-Barr virus, strain B95-8) (UniProt P12978); experiment: ITC
[2] = molecular target: BS69 MYND domain (BS69_(MYND), residues 516–562) (mouse); experiment: ITC; peptide (~1 mM) titrated into BS69_(MYND) or BS69_(CC-MYND) (~0.1 mM) at 5°C; 20 mM Tris-HCl pH 7.5, 100 mM NaCl, 2 mM DTT; one-site fitting model
[3] = molecular target: BS69/ZMYND11 coiled-coil-MYND tandem domains (BS69_(CC-MYND), residues 440–562) (mouse); experiment: as above
[4] = molecular target: BS69_(MYND) R560A (mouse); experiment: as above
[5] = molecular target: BS69_(MYND) Y532A (mouse); experiment: as above
[6] = molecular target: flag-tagged BS69_(CC-MYND) Q546A (mouse); experiment: co-IP
[7] = molecular target: flag-tagged BS69_(CC-MYND) Q546A/W550A (mouse); experiment: co-IP
[8] = molecular target: EBNA2 PXLXP2 mutant (Epstein-Barr virus, strain W91) (UniProt P12978)
[9] = molecular target: Epstein-Barr virus nuclear antigen 2 (EBNA2), expressed from a plasmid (Epstein-Barr virus, strain W91) (UniProt P12978)

**Q.** For “BS69/ZMYND11 coiled-coil-MYND tandem domains (BS69_(CC-MYND), residues 440–562) (domain or fragment)”, which Kd [1] is on record?
**A.** 0.24 µM

**Q.** What does the source list for “EBNA2_(381–389) peptide with an additional Gly-Tyr dipeptide at the C-terminus (NH2-[…]-CONH2)”?
**A.** Kd [2]: 25.6 µM; Kd [3]: 7.4 µM; fold decrease of binding against wild-type BS69 (MYND) [4]: 10 fold; fold decrease of binding against wild-type BS69 (MYND) [5]: 3 fold

**Q.** With “Epstein-Barr virus nuclear antigen 2 (EBNA2), expressed from a plasmid (from UniProt P12978 1-487) (natural protein)” as the substance, how does the percent reduction of EBNA2 binding against wild type [6] read?
**A.** 50%

**Q.** What about the percent reduction of EBNA2 binding against wild type [7] of the same substance?
**A.** 85%

**Q.** For “flag-tagged wild-type BS69_(CC-MYND) (domain or fragment)”, which BS69 inhibition of the LMP1-Luc reporter activated by the EBNA2 PXLXP2 mutant [8] is on record?
**A.** 50%

**Q.** And the EBNA2 activation of the LMP1-Luc or Cp-Luc reporter in BJAB cells in the presence of wild-type BS69 (CC-MYND) (around 10-fold without BS69) [9]?
**A.** < 2 fold
